Data taken from patent US20250179208A1 (ZONHON BIOPHARMA INSTITUTE, published 2025).
Like-named read-outs stand apart in the source and are kept apart here.

T1: CD3 protein
T1 chain 1: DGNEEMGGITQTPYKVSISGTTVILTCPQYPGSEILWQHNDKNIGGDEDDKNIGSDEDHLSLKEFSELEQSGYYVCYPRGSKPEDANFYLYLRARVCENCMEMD
T1 chain 2: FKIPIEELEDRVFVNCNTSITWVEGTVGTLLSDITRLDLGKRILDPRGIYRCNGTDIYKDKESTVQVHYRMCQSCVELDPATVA


How the values were obtained:
[1] = biological target: T2, CD26 on CD26 positive human tumor cells (human, UniProt P27487 1-766); experiment: cell-based or functional assay
[2] = biological target: T2, CD26 on CD26 positive human tumor cells; experiment: cell-based or functional assay; remark: listed apart in the source
[3] = biological target: T2, CD26 on CD26 positive human tumor cells; experiment: cell-based or functional assay; remark: listed apart in the source
[4] = biological target: T3, CD26 protein (recombinant human CD26) (human, UniProt P27487 29-766, limits assumed); experiment: BLI (Octet), biotinylated CD26 on SA sensor, antibody 31.3-500 nM
T3 construct: Amine-coupled, biotinylated or HRP-labeled according to the assay; also called DPP4; rCD26
Experimental: CD26 protein was biotinylated with EZ-link NHS-PEG12-Biotin. Biotinylated CD26 protein was immobilized to SA biosensor. Equilibrated in 1×Kinetics solution. The CD26 immobilized to SA biosensor was combined with the antibody solution to be detected. The concentration gradients of the antibody solution were 31.3 nM, 62.5 nM, 125 nM, 250 nM, and 500 nM. The biosensor was dissociated in 1×Kinetics solution. Fortebio Data Analysis 8.0 software was used for data analysis and affinity constant values were calculated.

[5] = biological target: T2, CD26 on CD26 positive human tumor cells; experiment: cell-based or functional assay; remark: listed apart in the source
[6] = biological target: T1, CD3 protein; experiment: BLI (Octet), biotinylated CD3 on SA sensor, antibody 200-1600 nM
Experimental: CD3 protein was biotinylated with EZ-link NHS-PEG12-Biotin. Biotinylated CD3 protein was immobilized to SA biosensor. Equilibrated in 1×Kinetics solution. The CD3 immobilized to SA biosensor was combined with the humanized bispecific antibody solution to be detected. The concentration gradient of humanized bispecific antibody was 200 nM, 400 nM, 800 nM, and 1600 nM. The biosensor was dissociated in 1×Kinetics solution. Fortebio Data Analysis 8.0 software was used for data analysis and affinity constant values were calculated.

[7] = biological target: T1, CD3 protein; experiment: BLI (Octet QKe), CD3 amine-coupled on AR2G sensor, antibody at 181.8 nM
Experimental: The affinity of chimeric antibodies to antigen protein CD3 was determined by Fortebio Intermolecular Interaction Octet QKe instrument. First, the amino-coupled biosensor AR2G was activated with EDC/s-NHS, and the activated biosensor AR2G was solidified in CD3 protein solution diluted with 10 mM sodium acetate (pH 5.0) solution. The biosensor solidified with CD3 was quenched in 1M ethanolamine (pH8.5) solution. Then equilibrated in 1× kinetic solution. After equilibration, it was bound to bispecific antibody solution. They were dissociated in 1×kinetic solution. Fortebio Data Analysis 8.0 software was used to analyze the data and calculate the affinity constant value (KD).

[8] = biological target: T3, CD26 protein (recombinant human CD26); experiment: BLI (Octet QKe), CD26 amine-coupled on AR2G sensor, antibody at 181.8 nM
Experimental: The affinity of the chimeric antibody to the antigen protein CD26 was detected by Fortebio Intermolecular Interaction Octet QKe instrument. First, the amino-coupled biosensor AR2G was activated with EDC/s-NHS, and the activated biosensor AR2G was solidified in CD26 protein solution diluted with 10 mM sodium acetate (pH 5.0) solution. The biosensor solidified with CD26 was quenched in 1M ethanolamine (pH8.5) solution. Then equilibrated in 1× kinetic solution. After equilibration, it was bound to a humanized bispecific antibody solution. It was dissociated in 1× kinetic solution. Fortebio Data Analysis 8.0 software was used to analyze the data and calculate the affinity constant (KD), association rate constant (kon) and dissociation rate constant (kdis). The Response value represents the number of antibody molecules that can bind to the antigen. Kon indicates the binding speed of the antibody to the corresponding receptor. Kdis represents the dissociation speed of antibody from corresponding receptor. NA indicates no valid data.

| Kd [4] [nM] | koff [4] [s⁻¹] | kon [4] [M⁻¹ s⁻¹] | Kd [6] [nM] | koff [6] [s⁻¹] | kon [6] [M⁻¹ s⁻¹] | Binder | cell lysis rate, antibody mediated PBMC cytotoxic effect on 786-0 cells (100 ng/ml, 5 h) [1] [%] | EC50 of antibody mediated cytotoxicity of PBMC against 786-0-LUC cells (luciferase reporter) [3] [pg/mL] | EC50 of antibody mediated cytotoxicity of PBMC against A498-LUC cells (luciferase reporter) [3] [ng/mL] | IC50 of antibody mediated PBMC cytotoxicity against 786-0 cells [5] [pg/mL] | IC50 of antibody mediated PBMC cytotoxicity against NCI-H226 cells [5] [pg/mL] | IC50 of antibody mediated PBMC cytotoxicity against OS-RC-2 cells [5] [pg/mL] | IC50 of antibody mediated PBMC cytotoxicity against PC-3 cells [5] [pg/mL] | also measured |
| --- | --- | --- | --- | --- | --- | --- | --- | --- | --- | --- | --- | --- | --- | --- |
| – | – | – | – | – | – | No. 212 mouse antibody (antibody, V domains shown) VH: EVQLQEAGPSLVKPSQTLSLTCFVTGDSITSGYWHWIRKFPGNKLEYMGYINYSGYTYYNPSLKSRFSITRDTSKNQYYLQLNSVTTEDTATYYCTSERNWGAFAYWGQGTLITVSS VL: ENVLTQSPAIMSASPGEKVTMTCRASSSVISTYLHWYQQKSGASPKLWIYSTSNLASGVPARFSGSGSGTSYSLTISSVEAEDAATYYCQQFSGYPYTFGGGTKLEIK | 11.3 | – | – | – | – | – | – | – |
| – | – | – | – | – | – | No. 62 mouse antibody (antibody, V domains shown) VH: EVQLQQSGAELVKPGASVKLSCTASGFNIKDTYIYWVKQRPGQGLEWIGRIEPMNGNTKYDPKFQGKATMTANTSSNTAYLHLSSLASEDTAVYFCSRGGWLLLYVMDYWGQGTSVTVSS VL: DIVMTQAAPSVSVTPGESVSISCRSDKSLLHSNGNTYLYWFLQRPGQSPQVLIYRMSNLASGVPDRFSGSGSGTGFTLRVSRVEAEDVGVYYCFQQLEYPYTFGGGTKLEIKR | 53.1 | – | – | – | – | – | – | – |
| 0.914 | 8.45e-05 | 92400 | 0.751 | 0.000178 | 238000 | 19G294 (anti-CD26-CD3 humanized bispecific antibody derived from No. 62 mouse antibody) (bispecific antibody, also called 19G294 BiTE) DIVMTQSPSSLSVTPGERVSISCRSDKSLLHSNGNTYLYWFLQKPGQSPQVLIYRMSNLASGVPDRFSGSGSGTDFTLTISRVEAEDVGVYYCFQQLEYPYTFGQGTKLEIKGGGGSGGGGSGGGGSEVQLVQSGAELVKPGASVKLSCAASGFNIKDTYIYWVRQAPGQGLEWVGRIEPMNGNTKYDPKFQGRFTMTANTSKNTAYLQLSSLRSEDTAVYYCSRGGWLLLYVMDYWGQGTLVTVSSGGGGSDVQLVQSGAEVKKPGASVKVSCKASGYTFTRYTMHWVRQAPGQGLEWIGYINPSRGYTNYADSVKGRFTITTDKSTSTAYMELSSLRSEDTATYYCARYYDDHYCLDYWGQGTTVTVSSGGGGSGGGGSGGGGSDIVLTQSPATLSLSPGERATLSCRASQSVSYMNWYQQKPGKAPKRWIYDTSKVASGVPARFSGSGSGTDYSLTINSLEAEDAATYYCQQWSSNPLTFGGGTKVEIK | – | 1430 | 4.15 | 260 | 752 | 545 | 220 | EC50 of antibody mediated cytotoxicity of PBMC against 786-0-LUC cells (luciferase reporter) [2]: 2620 pg/mL; EC50 of antibody mediated cytotoxicity of PBMC against A498-LUC cells (luciferase reporter) [2]: 3.21 ng/mL; IC50 of antibody mediated PBMC cytotoxicity against HCC 827 cells [5]: 546 pg/mL; IC50 of antibody mediated PBMC cytotoxicity against NCI-H2052 cells [5]: 5.05 ng/mL |
| – | – | – | – | – | – | YS110 (humanized anti-CD26 full-length IgG antibody) (antibody, V domains shown) VH: EVQLVESGAGVKQPGGTLRLTCTASGFSLTTYGVHWVRQAPGKGLEWVGVIWGDGRTDYDAAFMSRVTISKDTSKSTVYLQMNSLRAEDTAVYYCMRNRHDWFDYWGQGTTVTVSS VL: DILLTQSPSSLSATPGERATITCRASQGIRNNLNWYQQKPGQAPRLLIYYSSNLQSGVPSRFSGSGSGTDFTLTISRLQPEDVAAYYCQQSIKLPFTFGSGTKVEIK | 56.6 | – | – | > 100000 | > 100000 | > 100000 | > 100000 | – |
| – | – | – | – | – | – | 17G105 (anti-CD26-CD3 chimeric bispecific antibody derived from No. 72 mouse antibody) (bispecific antibody, also called chimeric BiTE) DIVLTQSPASLAVSLGQRATISCRASESVEYYGTSLMQWYQQKPGQPPKLLIYTASNVESGVPVRFSGSGSGTDFSLNIHPVEEDDIAMYFCQQSRKVPYTFGGGTKLEIKGGGGSGGGGSGGGGSQVQLQQSGPELMKPGASVKISCKATGYSFSGFWIEWVKQRPGHGLEWIGEILPGSGASNYHENFKGRATITADTSANTAYMQLRSLTSEDSAVYYCARERYYGSKYFDVWGAGTTVTVSSGGGGSDVQLVQSGAEVKKPGASVKVSCKASGYTFTRYTMHWVRQAPGQGLEWIGYINPSRGYTNYADSVKGRFTITTDKSTSTAYMELSSLRSEDTATYYCARYYDDHYCLDYWGQGTTVTVSSGGGGSGGGGSGGGGSDIVLTQSPATLSLSPGERATLSCRASQSVSYMNWYQQKPGKAPKRWIYDTSKVASGVPARFSGSGSGTDYSLTINSLEAEDAATYYCQQWSSNPLTFGGGTKVEIK | – | – | – | – | – | – | – | Kd [7]: 2.18 nM; koff [7]: 0.000672 s⁻¹; kon [7]: 309000 M⁻¹ s⁻¹; Kd [8]: 39.3 nM; Response [8]: 0.498; koff [8]: 0.00126 s⁻¹; kon [8]: 32000 M⁻¹ s⁻¹ |
| 0.352 | 4.01e-05 | 114000 | 0.683 | 8.71e-05 | 128000 | 21G587 (19G294 anti-CD26 scFv joined to the WBP3311_2.306.4 anti-CD3 scFv) (bispecific antibody) EVQLVQSGAELVKPGASVKLSCAASGFNIKDTYIYWVRQAPGQGLEWVGRIEPMNGNTKYDPKFQGRFTMTANTSKNTAYLQLSSLRSEDTAVYYCSRGGWLLLYVMDYWGQGTLVTVSSGGGGSGGGGSGGGGSDIVMTQSPSSLSVTPGERVSISCRSDKSLLHSNGNTYLYWFLQKPGQSPQVLIYRMSNLASGVPDRFSGSGSGTDFTLTISRVEAEDVGVYYCFQQLEYPYTFGQGTKLEIKGGGGSQVQLVQSGAEVKKPGSSVKVSCKASGFAFTDYYIHWVRQAPGQGLEWMGWISPGNVNTKYNENFKGRVTITADKSTSTAYMELSSLRSEDTAVYYCARDGYSLYYFDYWGQGTLVTVSSGGGGSGGGGSGGGGSDIVMTQSPDSLAVSLGERATINCKSSQSLLNSRTRKNYLAWYQQKPGQPPKLLIYWASTRQSGVPDRFSGSGSGTDFTLTISSLQAEDVAVYYCTQSHTLRTFGGGTKVEIK | – | 2490 | 5.4 | – | – | – | – | – |
